B1: ATP-dependent RNA helicase DBP5 (Saccharomyces cerevisiae), P20449 (parent)
chain: MSDTKRDPADLLASLKIDNEKEDTSEVSTKETVKSQPEKTADSIKPAEKLVPKVEEKKTKQEDSNLISSEYEVKVKLADIQADPNSPLYSAKSFDELGLAPELLKGIYAMKFQKPSKIQERALPLLLHNPPRNMIAQSQSGTGKTAAFSLTMLTRVNPEDASPQAICLAPSRELARQTLEVVQEMGKFTKITSQLIVPDSFEKNKQINAQVIVGTPGTVLDLMRRKLMQLQKIKIFVLDEADNMLDQQGLGDQCIRVKRFLPKDTQLVLFSATFADAVRQYAKKIVPNANTLELQTNEVNVDAIKQLYMDCKNEADKFDVLTELYGLMTIGSSIIFVATKKTANVLYGKLKSEGHEVSILHGDLQTQERDRLIDDFREGRSKVLITTNVLARGIDIPTVSMVVNYDLPTLANGQADPATYIHRIGRTGRFGRKGVAISFVHDKNSFNILSAIQKYFGDIEMTRVPTDDWDEVEKIVKKVLKD
partner: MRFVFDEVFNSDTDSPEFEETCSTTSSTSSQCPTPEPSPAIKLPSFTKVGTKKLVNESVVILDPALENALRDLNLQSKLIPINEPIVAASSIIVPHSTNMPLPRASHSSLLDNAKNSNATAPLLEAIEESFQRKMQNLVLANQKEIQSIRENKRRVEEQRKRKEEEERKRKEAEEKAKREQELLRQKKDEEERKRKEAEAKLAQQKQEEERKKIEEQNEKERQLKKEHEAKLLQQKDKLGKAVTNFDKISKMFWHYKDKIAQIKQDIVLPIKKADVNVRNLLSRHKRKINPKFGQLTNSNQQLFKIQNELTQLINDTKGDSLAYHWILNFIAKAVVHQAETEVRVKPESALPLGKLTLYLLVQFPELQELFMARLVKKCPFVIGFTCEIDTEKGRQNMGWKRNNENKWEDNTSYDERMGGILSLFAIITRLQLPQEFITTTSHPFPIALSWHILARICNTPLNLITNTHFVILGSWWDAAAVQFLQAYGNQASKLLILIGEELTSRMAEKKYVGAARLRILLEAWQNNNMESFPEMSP

Variants of: B1
Settings: with gle1_yeast GLE1, Q12315

Row | Variant | effect of a mutation on the interaction
1 | K382E | disrupting interaction
2 | E353K | decreasing interaction
3 | E473K | disrupting interaction
4 | E473A | decreasing interaction
5 | E323K | disrupting interaction
6 | T329A | decreasing interaction

Variants of: B1
Settings: with gle1_yeast GLE1, Q12315
Remark: another data set of the same source

Row | Variant | effect of a mutation on the interaction
7 | K382E | decreasing interaction
8 | E473K | decreasing interaction
9 | E323K | decreasing interaction
